From patent publication US7067274B2, “Compositions and methods for the screening pro-apoptotic compounds” (Genentech, Inc., priority 2003, dated 2006)
Numbering of substitutions follows the chain as printed. Entries after “also recorded” stand apart in the source; their conditions may differ. Read-outs that look alike come from different tables or passages of the source.

T1: ΔCARD human caspase 9 (Homo sapiens, UniProt P55211, D305A/E304A/E306A)
T1 construct: made in house
T1 sequence (P55211 139-315 E304A/D305A/E306A limits assumed): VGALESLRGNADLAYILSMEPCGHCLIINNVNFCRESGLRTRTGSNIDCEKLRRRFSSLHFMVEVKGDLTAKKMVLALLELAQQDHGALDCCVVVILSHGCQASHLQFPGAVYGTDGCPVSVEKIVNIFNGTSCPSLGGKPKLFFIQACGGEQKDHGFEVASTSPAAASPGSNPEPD
T1 sequence (P55211 316-416 limits assumed): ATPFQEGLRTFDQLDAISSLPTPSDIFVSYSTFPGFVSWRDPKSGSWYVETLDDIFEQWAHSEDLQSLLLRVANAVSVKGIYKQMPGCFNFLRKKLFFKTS

T2: caspase-9 (Homo sapiens, UniProt P55211)
T2 sequence (P55211 1-416): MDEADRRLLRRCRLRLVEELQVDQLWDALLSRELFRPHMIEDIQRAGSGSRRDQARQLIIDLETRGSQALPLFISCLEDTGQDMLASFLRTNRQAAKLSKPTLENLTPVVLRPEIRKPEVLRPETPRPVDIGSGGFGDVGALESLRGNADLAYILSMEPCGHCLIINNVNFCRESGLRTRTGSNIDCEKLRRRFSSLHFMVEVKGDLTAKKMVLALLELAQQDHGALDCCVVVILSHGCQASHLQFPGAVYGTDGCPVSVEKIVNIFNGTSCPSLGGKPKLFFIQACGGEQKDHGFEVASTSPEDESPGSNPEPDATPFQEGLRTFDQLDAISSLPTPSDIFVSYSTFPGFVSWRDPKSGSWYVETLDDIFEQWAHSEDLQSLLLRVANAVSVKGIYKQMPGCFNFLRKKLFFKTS

B1: MLXBIR3: ML-IAP-BIR in which amino acids 160–179 were replaced with amino acids 336–348 of XIAP-BIR3 (protein)
chain: TEEEEEEGAGATLSRGPAFPGMGSEELRLASFYDWPLTAEVPPELLAAAGFFHTGHQDKVRCFFCYGGLQSWKRGDDPWTEHAKWFPSCQFLLRSKGQEYINNIHLTHSL
modifications: left off: small tags and cut ends
B2: MLBIR-Q: C-terminally truncated version of ML-IAP-BIR with the same number of amino acids as MLXBIR3 and MLXBIR3SG (protein)
chain: B1 chain with Q98R, E99D, Y100F, I101V, N102H, N103S, I104V, H105Q, L106E, L110Q
modifications: left off: small tags and cut ends
B3: MLXBIR3SG: MLXBIR3 chimera with Ser 150 of ML-IAP-BIR mutated to Gly (SEQ ID NO:2) (protein)
chain: MGSSHHHHHHSSGLVPRGSHMLETEEEEEEGAGATLSRGPAFPGMGSEELRLASFYDWPLTAEVPPELLAAAGFFHTGHQDKVRCFFCYGGLQSWKRGDDPWTEHAKWFPGCQFLLRSKGQEYINNIHLTHSL
modifications: Homo sapien
B4: XIAP-BIR3: third BIR domain of XIAP (residues 252–348) (protein)
chain: NSTNLPRNPSMADYEARIFTFGTWIYSVNKEQLARAGFYALGEGDKVKCFHCGGGLTDWKPSEDPWEQHAKWYPGCKYLLEQKGQEYINNIHLTHSL
modifications: left off: small tags and cut ends
B5: ML-IAP: full-length melanoma inhibitor of apoptosis protein with N-terminal His6-tag (protein)
chain: MGPKDSAKCLHRGPQPSHWAAGDGPTQERCGPRSLGSPVLGLDTCRAWDHVDGQILGQLRPLTEEEEEEGAGATLSRGPAFPGMGSEELRLASFYDWPLTAEVPPELLAAAGFFHTGHQDKVRCFFCYGGLQSWKRGDDPWTEHAKWFPSCQFLLRSKGRDFVHSVQETHSQLLGSWDPWEEPEDAAPVAPSVPASGYPELPTPRREVQSESAQEPGGVSPAEAQRAWWVLEPPGARDVEAQLRRLQEERTCKVCLDRAVSIVFVPCGHLVCAECAPGLQLCPICRAPVRSRVRTFLS
modifications: left off: small tags and cut ends

Legend:
[1] = molecular target: Hid-FAM (5-carboxyflourescein-conjugated AVPFAK(5-FAM)K); test: Fluorescence polarization affinity measurement with Hid-FAM probe; type: binding; conditions: 5 nM Hid-FAM, apparent Kd from EC50
Procedure: Polarization experiments were performed on an Analyst™ HT 96-384 (Molecular Devices Corp.). […] The reactions were read after an incubation time of 10 minutes at room temperature with standard cut-off filters for the fluorescein fluorophore (λex=485 nm; λem=530 nm) in 96-well black HE96 plates (Molecular Devices Corp.). Fluorescence polarization values were plotted as a function of the protein concentration, and the EC50 values were obtained by fitting the data to a 4-parameter equation using Kaleidagraph™ software (Synergy software, Reading, Pa.). The apparent Kd values were determined from the EC50 values.
(§1) The binding affinity of the Hid-FAM probe for each of the BIR domains was determined directly using a fluorescence polarization-based assay and the result is shown graphically in FIG. 8.

[2] = test system: MCF7 cells; test: Inhibition of doxorubicin-induced apoptosis in transfected MCF7 cells; type: cell-based; conditions: MCF7 cells transiently transfected, doxorubicin 0.5 μg/ml
Procedure: MCF7 cells were transiently transfected with the reporter plasmid pCMV-βgal and either vector control alone or BIR domain constructs. Following transfection, cells were exposed to doxorubicin (adriamycin; 0.5 μg/ml), stained with X-gal and apoptosis assessed by counting live and dead transfected cells. Percentage apoptosis represents the mean value of at least four sample points and is representative of three independent experiments.

[3] = molecular target: T1, ΔCARD human caspase 9; test: Determination of caspase-9 inhibitory constants (Ac-LEHD-AFC hydrolysis); type: biochemical; conditions: for Ki: read-out: Caspase-9 inhibition Ki(app)
Procedure: ΔCARD (caspase recruitment domain) human caspase 9 (lacking the first 138 residues) with Ala substitutions at residues 304 to 306 was produced as described previously (Boatright et al., (2003) Mol Cell 11: 529–541). The third BIR of […] (residues 252–348) was also prepared as described previously (Sun et al., (2000) J Biol Chem 275(43): 33777–81).
Determination of Caspase-9 Inhibitory Constants: Recombinant ΔCARD caspase 9 (300 nM final concentration in the assay) was preactivated in salt-free caspase buffer (20 mM PIPES, 10 mM EDTA, 0.1% CHAPS and 10% (w/v) sucrose, pH 7.2) for 15 min at 37° C. Following this, a range of inhibitor concentrations were preincubated with the enzyme for 20 min at 37° C. The assay was started by the addition of Ac-LEHD-AFC (100 μM final concentration) and measured kinetically for 30 min using an fmax Fluorescence Plate Reader (Molecular Devices) at an excitation wavelength of 405 nm and an emission wavelength of 510 nm. Reaction mixtures were thermostatically controlled at 37° C. The individual Ki values for the inhibitors [I] were determined from the uninhibited substrate hydrolysis rate (vo) and the inhibited rates (vi), so that a plot of (vo/vi)−1 against [I] gives Ki(app), the equilibrium inhibition constant in the presence of substrate (Salvesen and Nagase, (1989) Proteolytic enzymes: A practical approach. R. J. Beynon and J. S. Bond. Oxford, IRL Press: 83–104).

[4] = molecular target: wild-type mature Smac protein; test: Fluorescence polarization competition assay, mature Smac protein; type: binding, human; conditions: competition with 5 nM Hid-FAM probe, Ki from IC50
Procedure: A PCR product containing amino acids 56–239 of Smac/DIABLO (accession number SMAC_HUMAN) was cloned into the XbaI/XhoI sites of a pet21b+ (Novagen) generating a C-terminal His6 fusion. Pet21bSmac was transformed into Escherichia coli strain BL21(DE3) competent cells (Stratagene). Overnight cultures were diluted 1:100 and grown at 37° C. in LB media with 50 μg/ml carbenicillin to an A600 of 0.8 with vigorous shaking. Isopropyl-β-D-1-thiogalactopyranoside (IPTG) was added to a final concentration of 1 mM and cultures were grown overnight at 16° C. Cell pellets were resuspended in Buffer A (50 mM Tris (pH 8.0), 300 mM NaCl, 0.5 mM PMSF, 2 mM benzamidine, 5 mM β-mercaptoethanol) with 5 mM imidazole and placed on ice for 30 minutes. Cells were homogenized, microfluidized, and centrifuged at 15,000 rpm for 45 minutes. Supernatant was loaded onto a Ni-NTA agarose column (Qiagen™), washed with 10 column volumes Buffer A with 10 mM imidazole, and eluted with 10 column volumes Buffer A with 300 mM imidazole. Fractions containing Smac protein were pooled, concentrated and loaded on a Superdex™ 200 sizing column. Protein eluted over one column volume into 50 mM Tris (pH 7.6), 300 mM NaCl, 0.5 mM PMSF, 2 mM benzamidine and 5 mM DTT. Fractions containing Smac protein were pooled and dialyzed against 3 changes of buffer containing 50 mM Tris (pH 7.6), 0.5 mM PMSF, 2 mM benzamidine and 5 mM DTT. The dialyzed sample was loaded onto a Q-Sepharose™ FF column (Pharmacia) and eluted over a 10 column volume gradient from zero to 1 M NaCl in buffer 50 mM Tris (pH 7.6), 0.5 mM PMSF, 2 mM benzamidine and 5 mM DTT. The cDNA encoding full-length ML-IAP plus a N-terminal His6-tag was cloned into the pET15b(+) expression vector (Novagen). ML-IAP was expressed in E. coli strain BL21(DE3)pLysS. […] The protein concentration of purified proteins was determined from the absorbance at 280 nm based on the molar absorption coefficients calculated from the Edelhoch relationship (Edelhoch, (1967) Biochemistry 6: 1948–1954).
Samples were read after a 10-minute incubation. Fluorescence polarization values were plotted as a function of the antagonist concentration, and the IC50 values were obtained by fitting the data to a 4-parameter equation using Kaleidagraph™ software (Synergy software; Reading, Pa.). Inhibition constants (Ki) for the antagonists were determined from the IC50 values (Keating et al., (2000) Putting the pieces together: contribution of fluorescence polarization assays to small-molecule lead optimization. Proceedings of SPIE: In-Vitro Diagnostic Instrumentation.).
as §1

[5] = molecular target: T2, caspase-9; conditions: literature; read-out: inhibition constant, caspase-9; cited from earlier work
[6] = 300 nM ΔCARD caspase 9, 100 μM Ac-LEHD-AFC, 37° C.

| Molecule | Kd [1] [nM] | inhibition of doxorubicin-induced apoptosis [2] | Ki [3, 6] [nM] | fold less potent at inhibiting caspase-9 than XIAP-BIR3 ([3]; relative to XIAP-BIR3) [fold] | fold better at inhibiting caspase-9 than MLBIR-Q ([3]; relative to wild-type ML-IAP-BIR construct of the same length) [fold] | Ki [4] [nM] | Ki [5] [nM] | Ki [3] [nM] | fold lower potency for inhibition of caspase-9 activity relative to XIAP ([3]; relative to XIAP) [fold] |
| --- | --- | --- | --- | --- | --- | --- | --- | --- | --- |
| B1 | 21 | confers resistance | 962 | ~70 | ~5 |  |  |  |  |
| B2 | 20 |  | 4600 |  |  | 54 |  |  |  |
| B3 |  | significantly more efficient; also recorded: confers resistance | < 1 |  |  | 59 |  |  |  |
| B4 | 105 | confers resistance | 13 |  |  | 320 | 10 to 20 |  |  |
| B5 |  |  |  |  |  |  |  | 3000 to 5000 | ~300 |
